Measured values published in paper PMC5766609 (Scientific Reports, 2018).
Read-outs that look alike come from different tables or passages of the source. Starred links: 1 amine or outer side, 2 acyl side, 3 side chain; linkers in the order of their positions; H or OH if unused. Non-standard residues stand in square brackets, D forms with d. Residues, ends and D or L forms follow the SMILES beside them. Groups on a side chain read outwards from the residue. No end group written: not given here. *: point of attachment. γGlu = O=C(O)[C@H](CCC(=O)[*:2])N[*:1]; Palmitoyl = CCCCCCCCCCCCCCCC(=O)*

Columns and labels:
[1] = molecular target: T1, human glucagon receptor (GCGR) (Homo sapiens, UniProt P47871); assay: cAMP assay on CHO-JumpIn cells stably transfected with human glucagon receptor (HitHunter cAMP); type: cell-based; settings: cAMP accumulation, CHO-JumpIn cells with human GCGR, value ± spread;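 note: peptides tested as 4-fold serial dilutions starting from a 2 µM solution, cells exposed 1 hr at RT in darkness, cAMP quantified against a cAMP standard curve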
T1 construct: expressed in transfected cells; host or cells: CHO-JumpIn cells, stably transfected
T1 sequence (P47871 26-477): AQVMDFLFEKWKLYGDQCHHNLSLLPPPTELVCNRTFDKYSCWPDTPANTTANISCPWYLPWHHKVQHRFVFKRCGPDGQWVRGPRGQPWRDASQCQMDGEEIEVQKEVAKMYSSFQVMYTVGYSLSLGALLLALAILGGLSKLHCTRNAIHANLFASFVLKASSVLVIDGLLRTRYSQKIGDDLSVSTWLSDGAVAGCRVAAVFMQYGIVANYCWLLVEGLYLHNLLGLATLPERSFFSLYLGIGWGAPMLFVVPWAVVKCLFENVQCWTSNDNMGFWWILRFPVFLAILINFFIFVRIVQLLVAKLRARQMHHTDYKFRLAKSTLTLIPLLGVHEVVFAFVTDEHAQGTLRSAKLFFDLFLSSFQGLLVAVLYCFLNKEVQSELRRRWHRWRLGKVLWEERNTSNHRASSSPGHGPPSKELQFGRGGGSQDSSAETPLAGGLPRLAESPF
Experimental: (§1) Briefly, a 2 μM solution of peptide was prepared, and 4-fold serial dilutions were made. 150 nL of the above titration was then dispensed into an Optiplate384 using an Echo555. […] The HitHunter® cAMP Assay kit calibration curve was prepared following the manufacturer’s protocol (DiscoveRx-90-0075L). 30,000 cells/well were added to the peptides, spun briefly at 500 rpm for 15 s and incubated at RT in the dark for 1 hr. The assay was developed as per the manufacturer’s instructions. cAMP accumulation due to GLP1R agonism or GCGR agonism was measured using an EnVision platereader (PerkinElmer), and calibrated using the cAMP standard curve. Data were analyzed using Assay Data Analyzer (ADA).

[2] = molecular target: T2, human GLP-1 receptor (GLP1R) (Homo sapiens, UniProt P43220); assay: cAMP assay on CHO-JumpIn cells stably transfected with human GLP-1 receptor (HitHunter cAMP); type: cell-based; settings: value ± spread;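 note: peptides tested as 4-fold serial dilution series, cells exposed 1 hr at RT in the dark, cAMP quantified against a cAMP standard calibration curve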
T2 construct: expressed in transfected cells; host or cells: CHO-JumpIn cells, stably transfected
T2 sequence (P43220 24-463): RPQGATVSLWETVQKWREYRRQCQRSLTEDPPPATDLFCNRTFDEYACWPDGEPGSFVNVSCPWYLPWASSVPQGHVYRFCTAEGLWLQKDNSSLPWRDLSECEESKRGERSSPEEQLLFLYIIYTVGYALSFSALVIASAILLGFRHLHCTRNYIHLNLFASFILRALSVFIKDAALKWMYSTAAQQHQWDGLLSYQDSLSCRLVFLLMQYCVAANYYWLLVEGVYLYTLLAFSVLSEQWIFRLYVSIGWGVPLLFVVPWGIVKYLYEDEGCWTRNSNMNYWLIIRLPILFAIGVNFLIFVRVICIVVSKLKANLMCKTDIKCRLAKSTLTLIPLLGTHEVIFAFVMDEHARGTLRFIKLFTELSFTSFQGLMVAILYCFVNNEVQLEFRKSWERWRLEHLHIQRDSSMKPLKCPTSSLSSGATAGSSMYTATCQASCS
Experimental: as §1

[3] = molecular target: human GLP-1 receptor (human) (UniProt P43220)
Sequence of human GLP-1 receptor (human) (P43220 24-463): as above

[4] = molecular target: glucagon receptor (human) (UniProt P47871)
Sequence of glucagon receptor (human) (P47871 26-477): as the sequence (P47871 26-477) above

[5] = molecular target: human GLP-1 receptor (human) (UniProt P43220); remark: listed apart in the source
[6] = molecular target: glucagon receptor (human) (UniProt P47871); remark: listed apart in the source

| Molecule | EC50 GLP1R (nM); cAMP assay on CHO-JumpIn cells with human GLP1R [3] [nM] | EC50 GCGR (nM); cAMP assay on CHO-JumpIn cells with human GCGR [4] [nM] | also measured |
| --- | --- | --- | --- |
| CC(C)C[C@H](NC(=O)[C@H](Cc1ccc(O)cc1)NC(=O)[C@H](CCCCN)NC(=O)[C@H](CO)NC(=O)[C@H](Cc1ccc(O)cc1)NC(=O)[C@H](CC(=O)O)NC(=O)[C@H](CO)NC(=O)[C@H](Cc1ccccc1)NC(=O)[C@H](Cc1ccccc1)NC(=O)[C@@H](NC(=O)CNC(=O)[C@H](CCC(N)=O)NC(=O)[C@H](CO)NC(=O)[C@@H](N)Cc1c[nH]cn1)[C@@H](C)O)C(=O)N[C@@H](CC(=O)O)C(=O)N[C@@H](CO)C(=O)N[C@@H](CCCNC(=N)N)C(=O)N[C@@H](CCCNC(=N)N)C(=O)N[C@@H](C)C(=O)N[C@@H](CCC(N)=O)C(=O)N[C@@H](CC(=O)O)C(=O)N[C@@H](Cc1ccccc1)C(=O)N[C@H](C(=O)N[C@@H](CCC(N)=O)C(=O)N[C@@H](Cc1c[nH]c2ccccc12)C(=O)N[C@@H](CC(C)C)C(=O)N[C@@H](CC(C)C)C(=O)N[C@@H](CCC(=O)O)C(=O)N[C@H](C(N)=O)[C@@H](C)O)C(C)C [Peptide 34] (H-HSQGTFFSDYSKYLDSRRAQDFVQWLLET-NH2) | – | – | EC50 ([1]; Table 2, buffer PBS, 0.1% BSA, 100 μM RO 20-1724, 20% serum, 1 hr at RT, read-out: EC50 GCGR): 0.027 ± 0.005 nM; EC50 ([2]; Table 2, cAMP accumulation, buffer PBS, 0.1% BSA, 100 μM RO 20-1724, 20% serum, 1 hr at RT, read-out: EC50 GLP1R): 51.9 ± 57.7 nM |
| CCCCCCCCCCCCCCCC(=O)N[C@@H](CCC(=O)N[C@@H](CCC(=O)NCCCC[C@H](NC(=O)[C@H](CC(=O)O)NC(=O)[C@H](CO)NC(=O)[C@H](CC(C)C)NC(=O)[C@H](Cc1ccccc1)NC(=O)[C@@H](NC(=O)CNC(=O)[C@H](CCC(N)=O)NC(=O)[C@@H](CO)NC(=O)[C@@H](N)Cc1c[nH]cn1)[C@@H](C)O)C(=O)N[C@@H](CO)C(=O)N[C@@H](CCCCN)C(=O)N[C@@H](CC(C)C)C(=O)N[C@@H](CC(C)C)C(=O)N[C@@H](CC(=O)O)C(=O)N[C@@H](CO)C(=O)N[C@@H](CCCNC(=N)N)C(=O)N[C@@H](CCCNC(=N)N)C(=O)N[C@@H](C)C(=O)N[C@@H](CCC(N)=O)C(=O)N[C@@H](CC(=O)O)C(=O)N[C@@H](Cc1ccccc1)C(=O)N[C@H](C(=O)N[C@@H](CCC(N)=O)C(=O)N[C@@H](Cc1c[nH]c2ccccc12)C(=O)N[C@@H](CC(C)C)C(=O)N[C@@H](CCSC)C(=O)N[C@@H](CCC(N)=O)C(=O)N[C@H](C(N)=O)[C@@H](C)O)C(C)C)C(=O)O)C(=O)O [Peptide 37] (H-H[dS]QGTFLSDK([γGlu-γGlu-Palmitoyl])SKLLDSRRAQDFVQWLMQT-NH2; N-terminus assumed) | – | – | EC50 ([1]; Table 3, engineered versus parent peptides, read-out: EC50 hGCGR): 0.037 ± 0.004 nM; EC50 ([2]; Table 3, engineered versus parent peptides, cAMP accumulation, read-out: EC50 hGLP1): 23.5 ± 7.6 nM |
| HSQGTFTSDYSKYLDSRRAHDFVQWLLNT-NH2 [Peptide 11] | 0.018 | 0.018 | – |
| HSQGTFTSDYSKYLDSRRAQDFVQWLINY-NH2 [Peptide 13] | 0.039 | 0.078 | – |
| HSQGIFFSDYSKYLDSRRAQDFVQWLMNT-NH2 [Peptide 30] | > 200 | 0.026 | – |
| KALGQFTFTSDYSKYLDSRRAQDFVQWLMNT-NH2 [Peptide 21] | 14.8 | 4.18 | – |
| ASMFTFFSDYSKYLDSRRAQDFVQWLMLT-NH2 [Peptide 15] | > 200 | – | – |
| HSQGTFLHDYYYYLDSRRAQDFVQWLMDT-NH2 [Peptide 17] | > 200 | 0.527 | – |
| HSQGTFTSDYIKLLDSRRAQDFVQWLMNT-NH2 [Peptide 7] | 78.3 | 0.301 | – |
| HSQGTFTSDYSKYLDSKRAHDFVQWLLNT-NH2 [Peptide 24] | 0.018 | 0.026 | – |
| HSQGTFTSDYSKYLDSLMAQDFVQWLMST-NH2 [Peptide 5] | 0.133 | 0.025 | – |
| HSQGTFTSDYSKYLDSIRAQDFVQWLMDT-NH2 [Peptide 18] | 0.056 | 0.037 | – |
| H[dS]QGTFTSDK([γGlu-γGlu-Palmitoyl])SKYLDSRRAHDFVQWLLNT-NH2 (N-terminus assumed; SMILES CCCCCCCCCCCCCCCC(=O)N[C@@H](CCC(=O)N[C@@H](CCC(=O)NCCCC[C@H](NC(=O)[C@H](CC(=O)O)NC(=O)[C@H](CO)NC(=O)[C@@H](NC(=O)[C@H](Cc1ccccc1)NC(=O)[C@@H](NC(=O)CNC(=O)[C@H](CCC(N)=O)NC(=O)[C@@H](CO)NC(=O)[C@@H](N)Cc1c[nH]cn1)[C@@H](C)O)[C@@H](C)O)C(=O)N[C@@H](CO)C(=O)N[C@@H](CCCCN)C(=O)N[C@@H](Cc1ccc(O)cc1)C(=O)N[C@@H](CC(C)C)C(=O)N[C@@H](CC(=O)O)C(=O)N[C@@H](CO)C(=O)N[C@@H](CCCNC(=N)N)C(=O)N[C@@H](CCCNC(=N)N)C(=O)N[C@@H](C)C(=O)N[C@@H](Cc1c[nH]cn1)C(=O)N[C@@H](CC(=O)O)C(=O)N[C@@H](Cc1ccccc1)C(=O)N[C@H](C(=O)N[C@@H](CCC(N)=O)C(=O)N[C@@H](Cc1c[nH]c2ccccc12)C(=O)N[C@@H](CC(C)C)C(=O)N[C@@H](CC(C)C)C(=O)N[C@@H](CC(N)=O)C(=O)N[C@H](C(N)=O)[C@@H](C)O)C(C)C)C(=O)O)C(=O)O) [Peptide 36] | – | – | EC50 hGLP1 (nM); cAMP assay on CHO-JumpIn cells with human GLP1R [5]: 0.05 nM; EC50 hGCGR (nM); cAMP assay on CHO-JumpIn cells with human GCGR [6]: 0.023 nM |
| INHEQWAFTSDYSKYLDSRRAQDFVQWLMNT-NH2 [Peptide 14] | 16.7 | 2.6 | – |
| HSQGTFTSDYSKYLDIGRAQDFVQWLLNT-NH2 [Peptide 4] | 1.33 | 0.026 | – |
| HSQGTFTSDYSKYLDELRAYDFVQWLMNT-NH2 [Peptide 10] | 0.038 | 0.057 | – |
| HSQGTFTSDYSKYLDSRRAQDFVQWLLDS-NH2 [Peptide 35] | 0.018 | 0.0019 | – |
| HSQGTFTSDYSKYVEDRRAHDFVQWLMNT-NH2 [Peptide 2] | 0.184 | 2.24 | – |
| HSQGTFTSDYSKYLDSRRAQDFVMTSMNT-NH2 [Peptide 26] | 8.96 | > 200 | – |
| HSQGTFFSDYSKYLDSRRAQDFVQWLLET-NH2 [Peptide 34] | 51.9 | 0.027 | – |
| HSVGNFWSDYSKYLDSRRAQDFVQWLMLT-NH2 [Peptide 1] | 16.7 | 8.45 | – |
| HSQGTFTSDYSKYLDSRMAYDFVQWLMNT-NH2 [Peptide 33] | 0.059 | 0.079 | – |
| HSQGTFTSDYSKYLDSRRAQDFVDWLINS-NH2 [Peptide 28] | 0.007 | 0.016 | – |
| HSQGTFTSDYRKYLDERAAWDFVQWLMNT-NH2 [Peptide 3] | 0.427 | 1.35 | – |
